Experimental findings from the Immune Epitope Database (IEDB) are described below.

pKd: −log10 of the molar value.

What all share (experiment): IEDB peptide-MHC binding, purified MHC/competitive/radioactivity; filed as Kd, often an IC50 or EC50 that approximates it; ≥ and ≤ were set here for values at or beyond the usual limits of such assays
Assay [1] addresses HLA-A*33:01.
Assay [2] has as its target HLA-A*31:01.
Assay [3] addresses HLA-A*03:01.
In assay [4] the target is HLA-A*11:01.
Assay [5] concerns the target HLA-A*68:01.
The mark [6] stands for this setting: source organism: SARS coronavirus Tor2.
Setting [7] is: source organism: Vaccinia virus WR.
Setting [8] is: source organism: Mammarenavirus machupoense.
[9] abbreviates: source organism: Mammarenavirus guanaritoense.
Setting [10] is: source organism: Mopeia Lassa virus reassortant 29.

The term pKd denotes −log10 of the Kd, conventionally taken in molar units. For the sequence AQCFKMFYK, the pKd in assay [1] (setting [6]) was 6.06; in assay [2] (setting [6]), 8.20; in assay [3] (setting [6]), 7.59; in assay [4] (setting [6]) it was 8.60; in assay [5] (setting [6]) it was 6.75.

Take VSMTYLYNKY: the pKd in assay [1] (setting [7]) is at most 4.15; in assay [2] (setting [7]), at most 4.54; in assay [3] (setting [7]), 4.81; in assay [4] (setting [7]), 7.02; in assay [5] (setting [7]) it was at most 4.15.

Take VFTDISMSLY: the pKd in assay [1] (setting [7]) is 5.17; in assay [2] (setting [7]) it was 4.94; in assay [3] (setting [7]) it was 5.08; in assay [4] (setting [7]), 5.64; in assay [5] (setting [7]), 5.64.

On to LNNSFYYMK, for which the pKd in assay [1] (setting [8]) was at most 4.11; in assay [2] (setting [8]) it was 7.58; in assay [3] (setting [8]), 5.14; in assay [4] (setting [8]), 6.21; in assay [5] (setting [8]), 7.17.

As for TFKIDAVRYY, the pKd in assay [1] (setting [7]) was at most 4.36; in assay [2] (setting [7]), at most 4.68; in assay [3] (setting [7]), at most 4.15; in assay [4] (setting [7]) it was 4.92; in assay [5] (setting [7]), 5.84.

For MFLTSVINR, the pKd was 9.08 in assay [1] (setting [7]); 8.94 in assay [2] (setting [7]); 6.45 in assay [3] (setting [7]); 6.55 in assay [4] (setting [7]); 7.73 in assay [5] (setting [7]).

For KSVTKSSSWK, the pKd in assay [1] (setting [7]) was at most 4.25; in assay [2] (setting [7]) it was 6.42; in assay [3] (setting [7]), 8.00; in assay [4] (setting [7]), 7.86; in assay [5] (setting [7]) it was 7.10.

On to DLPSGFNTLK, for which the pKd is 4.98 in assay [1] (setting [6]); at most 4.44 in assay [2] (setting [6]); 5.64 in assay [3] (setting [6]); 5.91 in assay [4] (setting [6]); 7.96 in assay [5] (setting [6]).

SSPPIPMSR: the pKd in assay [1] (setting [7]) was 4.81; in assay [2] (setting [7]), 4.98; in assay [3] (setting [7]), 5.14; in assay [4] (setting [7]), 6.39; in assay [5] (setting [7]), 6.12.

On to MSTYSDICSK, for which the pKd in assay [1] (setting [7]) was at most 4.15; in assay [2] (setting [7]), at most 4.15; in assay [3] (setting [7]) it was at most 4.15; in assay [4] (setting [7]) it was at most 4.16; in assay [5] (setting [7]), at most 4.15.

Consider QITTDDLVK, for which the pKd in assay [1] (setting [7]) was 5.43; in assay [2] (setting [7]), 6.68; in assay [3] (setting [7]) it was at most 4.41; in assay [4] (setting [7]) it was 6.10; in assay [5] (setting [7]), 6.36.

Take NVTSMEELAR: the pKd was 6.60 in assay [1] (setting [7]); 6.15 in assay [2] (setting [7]); 5.30 in assay [3] (setting [7]); 6.64 in assay [4] (setting [7]); 8.55 in assay [5] (setting [7]).

Take IFFTTSLFLH: the pKd was 5.98 in assay [1] (setting [9]); 5.87 in assay [2] (setting [9]); 5.99 in assay [3] (setting [9]); 4.75 in assay [4] (setting [9]); 5.46 in assay [5] (setting [9]).

FTQHLLNIR: the pKd in assay [1] (setting [7]), in assay [2] (setting [7]), in assay [3] (setting [7]), in assay [4] (setting [7]) and in assay [5] (setting [7]) was at most 4.11 throughout.

On to NLKAMLYIIR, for which the negative-log Kd (pKd) in assay [1] (setting [7]) is 6.88; in assay [2] (setting [7]), 5.32; in assay [3] (setting [7]), 5.07; in assay [4] (setting [7]), 4.96; in assay [5] (setting [7]), 6.68.

On to QMDSMEALEY, for which the pKd in assay [1] (setting [7]) is at most 4.15; in assay [2] (setting [7]) it was at most 4.15; in assay [3] (setting [7]), 5.77; in assay [4] (setting [7]), 6.12; in assay [5] (setting [7]), 4.93.

Take NTIDKSSPLY: the pKd in assay [1] (setting [7]) was at most 4.15; in assay [2] (setting [7]), at most 4.15; in assay [3] (setting [7]), 5.10; in assay [4] (setting [7]), 5.78; in assay [5] (setting [7]) it was 7.07.

For AAMQRKLEK, the pKd in assay [1] (setting [6]) is at most 4.11; in assay [2] (setting [6]), at most 4.67; in assay [3] (setting [6]) it was 5.15; in assay [4] (setting [6]), 6.59; in assay [5] (setting [6]) it was at most 4.11.

As to KSISSMTIR, the negative logarithm of the Kd (pKd) in assay [1] (setting [7]) is 5.11; in assay [2] (setting [7]) it was 8.44; in assay [3] (setting [7]) it was 5.89; in assay [4] (setting [7]), 6.55; in assay [5] (setting [7]) it was 6.08.

On to LSPAHLINK, for which the pKd was at most 4.45 in assay [1] (setting [7]); 4.73 in assay [2] (setting [7]); 6.68 in assay [3] (setting [7]); 7.40 in assay [4] (setting [7]); 4.79 in assay [5] (setting [7]).

With LTKFVAAALH, the pKd in assay [1] (setting [10]) was 5.25; in assay [2] (setting [10]), 6.16; in assay [3] (setting [10]), 4.80; in assay [4] (setting [10]), 5.25; in assay [5] (setting [10]), 6.79.

In the case of MFEQYFIYTY, the negative-log Kd (pKd) is 5.24 in assay [1] (setting [7]); 5.35 in assay [2] (setting [7]); 7.73 in assay [3] (setting [7]); 5.67 in assay [4] (setting [7]); 5.09 in assay [5] (setting [7]).

With RTMPNESRVK, the pKd in assay [1] (setting [7]) was at most 4.15; in assay [2] (setting [7]), 6.91; in assay [3] (setting [7]), 7.60; in assay [4] (setting [7]), 8.34; in assay [5] (setting [7]) it was 5.95.
